Results: publication doi:10.1101/842088
Where two headings read alike, the source gives them in different places.

How the values were obtained:
Assay in all cases: fluorescence polarization
NS3h WT (T7 Shuffle) [1] = target: T1, NS3h WT (T7 Shuffle) (dengue virus 4, UniProt P09866 1646-2092)
NS3h WT = NS3h WT (dengue virus 4, UniProt P09866 1646-2092)
NS3h WT (T7 Shuffle) [2] = target: T1, NS3h WT (T7 Shuffle); remark: listed apart in the source

T1 sequence (P09866 1646-2092): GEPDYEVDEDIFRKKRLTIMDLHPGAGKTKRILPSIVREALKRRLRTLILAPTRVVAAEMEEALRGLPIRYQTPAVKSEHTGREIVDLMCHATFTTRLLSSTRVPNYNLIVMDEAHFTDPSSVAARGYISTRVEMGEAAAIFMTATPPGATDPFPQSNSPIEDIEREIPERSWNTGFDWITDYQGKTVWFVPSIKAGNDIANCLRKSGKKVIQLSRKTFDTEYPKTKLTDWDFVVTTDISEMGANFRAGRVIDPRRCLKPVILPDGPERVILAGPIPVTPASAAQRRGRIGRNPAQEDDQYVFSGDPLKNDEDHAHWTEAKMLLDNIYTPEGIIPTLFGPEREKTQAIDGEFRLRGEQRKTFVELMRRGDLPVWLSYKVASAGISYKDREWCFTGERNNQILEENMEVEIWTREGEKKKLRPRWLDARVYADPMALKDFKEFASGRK
Chain of NS3h WT (P09866 1646-2092): as above

AGUAA (ssRNA, 5'-diphosphate (pp (so in the source))) [ppAGUAA Alexa-488 RNA oligo]
Kd (NS3h WT (T7 Shuffle) [1]): 3.4 ± 1.4 µM | Kd (NS3h WT): 1.9 ± 0.8 µM | Kd (NS3h WT (T7 Shuffle) [2]): 4.5 ± 1.5 µM
